According to article PMC3720670, “Function and X-Ray crystal structure of Escherichia coli YfdE” (PLoS ONE, 2013):
Each block holds one molecule with its values, some of them ahead of it.

Experiments:
[1] = molecular target: UctC (Acetobacter aceti strain 1023) (UniProt A9X6P9); test: SEC; analytical gel filtration, Superdex 200 Hi-load 16/60, 50 mM Tris-HCl pH 8.0, 100 mM KCl; apparent solution molecular weights from retention times
[2] = substrate: CC(=O)SCCNC(=O)CCNC(=O)[C@H](O)C(C)(C)COP(=O)(O)OP(=O)(O)OC[C@H]1O[C@@H](n2cnc3c(N)ncnc32)[C@H](O)[C@@H]1OP(=O)(O)O; test: HPLC of oxalyl-CoA formation, Michaelis-Menten fit; format: biochemical, Escherichia coli; conditions: 50 mM oxalate (subsaturating, value likely lower than true), 50 mM potassium phosphate, pH 6.7, parameter symbol, unit prefix and kcat unit not given, inferred
[3] = molecular target: the molecule itself; test: SEC; analytical gel filtration, Superdex 200 Hi-load 16/60, 50 mM Tris-HCl pH 8.0, 100 mM KCl; apparent solution molecular weights from retention times
[4] = substrate: CC(=O)SCCNC(=O)CCNC(=O)[C@H](O)C(C)(C)COP(=O)(O)OP(=O)(O)OC[C@H]1O[C@@H](n2cnc3c(N)ncnc32)[C@H](O)[C@@H]1OP(=O)(O)O; test: HPLC of oxalyl-CoA formation, Michaelis-Menten fit; format: biochemical, Escherichia coli; conditions: 50 mM oxalate (subsaturating, value likely lower than true), 50 mM potassium phosphate, pH 6.7, parameter symbol, unit prefix and kcat unit not given, inferred; remark: listed apart in the source
Description: HPLC of oxalyl-CoA formation, Michaelis-Menten fit on H6YfdE

stoichiometry N [1]: 2
Molecule: UctC (from UniProt A9X6P9 1-389) (enzyme)

B1: YfdE (Escherichia coli K-12) (protein)
chain: MTNNESKGPFEGLLVIDMTHVLNGPFGTQLLCNMGARVIKVEPPGHGDDTRTFGPYVDGQSLYYSFINHGKESVVLDLKNDHDKSIFINMLKQADVLAENFRPGTMEKLGFSWETLQEINPRLIYASSSGFGHTGPLKDAPAYDTIIQAMSGIMMETGYPDAPPVRVGTSLADLCGGVYLFSGIVSALYGREKSQRGAHVDIAMFDATLSFLEHGLMAYIATGKSPQRLGNRHPYMAPFDVFNTQDKPITICCGNDKLFSALCQALELTELVNDPRFSSNILRVQNQAILKQYIERTLKTQAAEVWLARIHEVGVPVAPLLSVAEAIKLPQTQARNMLIEAGGIMMPGNPIKISGCADPHVMPGAATLDQHGEQIRQEFSS
notes: untagged full-length, recombinant in E. coli BL21(DE3), plasmid pJK566 (Arg232 repaired), only partially purified; dimer
Km ([2]; partially pure enzyme): 17 µM | kcat ([2]; partially pure enzyme): 11 s⁻¹

B2: YfdEH6 (Escherichia coli K-12) (protein)
chain: B1 chain
notes: full-length with C-terminal hexahistidine tag kept (stop codon converted to Ser), pJK594, E. coli C41(DE3)
Km [2]: 13 µM | kcat [2]: 6.9 s⁻¹

B3: YfdE fused to an N-terminal hexahistidine tag (H6YfdE) (enzyme, Escherichia coli, UniProt P76518 1-381, looked up)
chain: B1 chain
notes: YfdE, Escherichia coli; yfdE gene amplified from genomic DNA of a strain BW25113 derivative; last residue Ser381; Expressed from pET28a (NdeI/XhoI); The appendage and the first five to six residues are disordered in the crystal; also called acetyl-CoA:oxalate CoA-transferase; ACOCT; source: E. coli C41(DE3), purified (ammonium sulfate, metal-charged nitrilotriacetic acid column); not shown: His6, …
stoichiometry N [3]: 2

B4: H6YfdE (Escherichia coli K-12) (protein)
chain: B1 chain
notes: full-length with N-terminal hexahistidine tag kept, pET28a (pJK593), E. coli C41(DE3); last residue Ser381; dimer
Km [4]: 18 µM | kcat [4]: 12 s⁻¹
